# In patent publication US20220348668A1 (UNIVERSITE DE FRANCHE COMTE, published 2022):
# T1: CD123 (protein in solution in the Octet affinity assay) (human, UniProt P26951 19-305, limits assumed)
# T1 construct: also called IL-3Rα; Interleukine-3 Receptor alpha
# T1 sequence (looked up): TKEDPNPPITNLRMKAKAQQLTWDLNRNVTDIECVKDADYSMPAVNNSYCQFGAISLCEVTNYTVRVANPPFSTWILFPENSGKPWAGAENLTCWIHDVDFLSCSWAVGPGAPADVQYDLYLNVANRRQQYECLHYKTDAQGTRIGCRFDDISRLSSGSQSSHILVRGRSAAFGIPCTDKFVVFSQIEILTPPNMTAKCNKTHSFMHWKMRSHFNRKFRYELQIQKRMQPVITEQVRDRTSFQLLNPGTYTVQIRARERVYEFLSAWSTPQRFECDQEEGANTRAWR
# How the values were obtained:
# [1] = target: CD123 on cells and tissues (CAL-1, GEN 2.2, PDX and primary BPDCN cells, normal pDC, monocytes, CD34+ cells, endothelial cells) (human) (UniProt P26951); assay: flow cytometry on monocytes; mean [minimum-maximum]
# [2] = target: CD123 on cells and tissues (CAL-1, GEN 2.2, PDX and primary BPDCN cells, normal pDC, monocytes, CD34+ cells, endothelial cells) (human) (UniProt P26951); assay: flow cytometry on normal pDC; mean [minimum-maximum]
# [3] = target: CD123 on cells and tissues (CAL-1, GEN 2.2, PDX and primary BPDCN cells, normal pDC, monocytes, CD34+ cells, endothelial cells) (human) (UniProt P26951); assay: flow cytometry on BPDCN cells; mean [minimum-maximum]
# [4] = target: CD123 on cells and tissues (CAL-1, GEN 2.2, PDX and primary BPDCN cells, normal pDC, monocytes, CD34+ cells, endothelial cells) (human) (UniProt P26951); assay: flow cytometry on CD34+ cells; mean [minimum-maximum]
# [5] = target: CD123 on cells and tissues (CAL-1, GEN 2.2, PDX and primary BPDCN cells, normal pDC, monocytes, CD34+ cells, endothelial cells) (human) (UniProt P26951); assay: flow cytometry on endothelial HMEC cell line; mean [minimum-maximum]
# [6] = target: CD123 on cells and tissues (CAL-1, GEN 2.2, PDX and primary BPDCN cells, normal pDC, monocytes, CD34+ cells, endothelial cells) (human) (UniProt P26951); assay: flow cytometry, MFIR = MFI of CD123 staining / MFI of isotype control mAb; cells: BPDCN, n=3; mean [min-max]
# [7] = target: CD123 on cells and tissues (CAL-1, GEN 2.2, PDX and primary BPDCN cells, normal pDC, monocytes, CD34+ cells, endothelial cells) (human) (UniProt P26951); assay: flow cytometry, MFIR = MFI of CD123 staining / MFI of isotype control mAb; cells: CD34 cells, n=7; mean [min-max]
# [8] = target: CD123 on cells and tissues (CAL-1, GEN 2.2, PDX and primary BPDCN cells, normal pDC, monocytes, CD34+ cells, endothelial cells) (human) (UniProt P26951); assay: flow cytometry, MFIR = MFI of CD123 staining / MFI of isotype control mAb; cells: monocytes, n=12; mean [min-max]
# [9] = target: CD123 on cells and tissues (CAL-1, GEN 2.2, PDX and primary BPDCN cells, normal pDC, monocytes, CD34+ cells, endothelial cells) (human) (UniProt P26951); assay: flow cytometry, MFIR = MFI of CD123 staining / MFI of isotype control mAb; cells: normal pDC, n=7; mean [min-max]
# [10] = target: CD123 on cells and tissues (CAL-1, GEN 2.2, PDX and primary BPDCN cells, normal pDC, monocytes, CD34+ cells, endothelial cells) (human) (UniProt P26951); assay: flow cytometry, MFIR = MFI of CD123 staining / MFI of isotype control mAb; cells: lymphocytes, n=12; mean [min-max]
# [11] = target: CD123 on cells and tissues (CAL-1, GEN 2.2, PDX and primary BPDCN cells, normal pDC, monocytes, CD34+ cells, endothelial cells) (human) (UniProt P26951); assay: flow cytometry, MFIR = MFI of CD123 staining / MFI of isotype control mAb; cells: polynuclear cells, n=5; mean [min-max]
# [12] = target: T1, CD123 (protein in solution in the Octet …); assay: BLI (Octet), antibody on streptavidin biosensor, CD123 25 nM
# Experimental: (§1) Affinity of the antibodies of the invention to CD123 is tested on streptavidin biosensors. Herein, to determine KD values seven different concentrations of CD123 were used on immobilized antibodies of the invention. The results were analyzed according to the Octet system available at FortéBio.
# [13] = target: T1, CD123 (protein in solution in the Octet …); assay: BLI (Octet), antibody on streptavidin biosensor, CD123 50 nM
# Experimental: as §1
# [14] = target: T1, CD123 (protein in solution in the Octet …); assay: BLI (Octet), antibody on streptavidin biosensor, CD123 12.5 nM
# Experimental: as §1
# [15] = target: T1, CD123 (protein in solution in the Octet …); assay: BLI (Octet), antibody on streptavidin biosensor, CD123 6.25 nM
# Experimental: as §1
# [16] = target: T1, CD123 (protein in solution in the Octet …); assay: BLI (Octet), antibody on streptavidin biosensor, CD123 in solution
# Experimental: as §1
Molecule,MFI [1],MFI [2],MFI [3],MFI [4],MFI [5],MFIR [6],MFIR [7],MFIR [8],MFIR [9],MFIR [10],MFIR [11],Response [12],Response [13],Response [14],Response [15],Kd [16],koff [16],kon [16]
6H6 commercial antiCD123 antibody,1700,34400,11700,874,1250,42.2,8,3.3,210,2.2,1.5,,,,,,,
"17F7B2 (antibody, V domains shown, Mouse hybridoma monoclonal antibody; also called AB2) VH: EVQLQQSGTVLARPGASVKMSCKASGYSFTSYWMHWVKQRPGQGLEWIGAFYPGKSDTTYNQKFKGKAKLTAVTSASTAYMELSSLTNEDSAVYYCTKGYRYDWFAYWGQGTLVTVSA VL: DVVMTQTPLSLPVSLGDQASISCRSSQSLVHSNGITYLHWYLQKPGQSPKLLIYKVSNRFSGVPDRFSGSGSGTDFTLKISRVEAEDLGVYFCSQNTHVPFTFGSGTKLEIKR",,,,,,,,,,,,0.34,0.507,0.265,0.149,2.55 nM,0.000882 s⁻¹,346000 M⁻¹ s⁻¹
"11A12C6 (antibody, V domains shown, Mouse hybridoma monoclonal antibody; also called AB5) VH: QVQLKESGPGLVAPSQSLSITCTVSGFSLTSYDINWIRQTPGKGLEWLGVIWTGGGTNYNSAFMSRLSISRDNSKSQVFLKMNSLQTDDTAIYYCVRGDGYYWYFDVWGAGTTVTVSS VL: IVMTQSPSSLAVSAGEKVTMSCKSSQSLFSSSARKNYLAWYQQRPGQSPKLLIYWASTRESGVPDRFTGSGSGTDFTLTIGSVQAEDLAVYYCKQSYSLFTFGSGTKLEIKR",,,,,,,,,,,,,,0.416,0.281,< 0.001 nM,< 1e-07 s⁻¹,326000 M⁻¹ s⁻¹
"11B6E6 (antibody, V domains shown, Mouse hybridoma monoclonal antibody; also called AB3) VH: QVKLEESGPGLVAPSQSLSITCTVSGFSLTSYDISWIRQPPGKGLEWLGVIWTGGGTNYNSAFMSRLSISKDNSKSQVFLKMFSLQTDDTAIYYCVRAHGYYFAMDYWGQGTSVTVSS VL: DIVLTQSPSSLAVSAGEKVTMRCKSSQSLLNSSTRKNYLAWYQQKPGQSPKLLIYWASTRESGVPDRFTGSGSGTDFTLTISSVQAEDLAVYYCKQSYNLFTFGSGTKLEIKR",,,,,,,,,,,,0.179,0.316,0.0895,0.0349,9.37 nM,0.000657 s⁻¹,70100 M⁻¹ s⁻¹
"15E11B7 (antibody, V domains shown, Mouse hybridoma monoclonal antibody; also called AB6) VH: EVQLEQSGPELVKPGDSVKISCKASGYSFTGYFMNWVKQSHGKSLEWIGRINPYNDYTFNNQKFKDKATLTVDKSSSTAHMELLSLTSEDSAVYYCGGGVRGAWFAFWGQGTLVTVSE VL: DIVLTQSTTSLAVSLGQRATISCRASKSVSTSGYNYMHWYQQKPGQPPKLLIYLASNLESGVPARFSGSGSGTDFTLNIHPVEEEDAATYYCQHSADLPYTFGGGTKLEIKR",,,,,,,,,,,,0.305,,0.155,0.0878,2.48 nM,0.000826 s⁻¹,332000 M⁻¹ s⁻¹
"18B4D5 (antibody, V domains shown, Mouse hybridoma monoclonal antibody; The tie uses 'at least 85% identity' wording; also called AB1; antiCD123 B4D5) VH: EVKLQESGPGLVKPSQSLSLTCTVTGYSITSDYTWNWIRQFPGNKLEWMGYISFSGSTSYNPSLKSRLSITRDTSKNQFFLQLNSVTTEDTATYYCARGLDYWGQGTTLTVSS VL: DIVMTQSPAIMSASLGERVTMTCTASSSISSSYLYWYQQKPGSSPKLWIYSTSNLASGVPARFSGSGSGTSYSLTISSMEAEDAATYYCHQLHRSPWTFGGGTKLEIKR",,,,,,,,,,,,0.42,0.697,0.23,0.12,< 0.001 nM,< 1e-07 s⁻¹,122000 M⁻¹ s⁻¹
"14G12D7 (antibody, V domains shown, Mouse hybridoma monoclonal antibody; also called AB4) VH: EVQLQESGPGLVKPSQSLSLTCTVTGYSVTSDYAWNWIRQFPGNKLEWMGYIIYSGTTSYNPSLKSRISITRDTSKNQFFLQLNSVTTEDTATYYCTRGVDYWGQGTTLTVSS VL: DIVLTQSPAIMSASPGEKVTMTCRASSSVRSSYLHWYQQKSGASPKLWIYSTSNLASGVPARFSGSGSGTSYSLTISSVEAEDAATYYCLQFSGYPFTFGGGTKLEIKR",,,,,,,,,,,,0.134,0.221,,,8.84 nM,0.000325 s⁻¹,36700 M⁻¹ s⁻¹
